Data: US20130316376A1 (SPIBER TECHNOLOGIES, published 2013)

Experiments:
[1] = biological target: T1, albumin from human blood plasma (human, UniProt P02768 25-609); assay: films incubated with human blood plasma, low pH elution, non-reducing SDS-PAGE
T1 construct: mature; Native plasma protein; also called human albumin

[2] = biological target: T2, albumin from rabbit serum (rabbit, UniProt P49065 25-608); assay: fibers incubated with rabbit serum, low pH elution, non-reducing SDS-PAGE
T2 construct: mature; Native serum protein; the form follows from the source (serum); also called albumin (~70 kDa)
T2 sequence (P49065 25-608): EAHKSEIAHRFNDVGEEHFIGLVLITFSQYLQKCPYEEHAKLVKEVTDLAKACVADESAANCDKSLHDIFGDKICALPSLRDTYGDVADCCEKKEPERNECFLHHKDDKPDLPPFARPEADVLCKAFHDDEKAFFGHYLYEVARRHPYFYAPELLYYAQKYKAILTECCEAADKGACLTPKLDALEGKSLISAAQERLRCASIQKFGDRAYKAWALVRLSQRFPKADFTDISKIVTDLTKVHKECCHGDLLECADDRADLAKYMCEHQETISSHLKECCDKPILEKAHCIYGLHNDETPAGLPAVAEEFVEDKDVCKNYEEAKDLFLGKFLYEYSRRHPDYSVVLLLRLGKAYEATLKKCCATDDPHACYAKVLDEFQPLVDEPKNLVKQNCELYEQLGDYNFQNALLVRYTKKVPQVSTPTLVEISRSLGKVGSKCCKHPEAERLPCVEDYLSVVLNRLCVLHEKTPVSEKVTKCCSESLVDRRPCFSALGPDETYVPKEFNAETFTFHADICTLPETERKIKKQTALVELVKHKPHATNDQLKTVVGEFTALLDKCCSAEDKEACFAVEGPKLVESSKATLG

Binder	binding result [1]	binding result [2]
His6AbdQGRep4CT (designed binder, tested as films and fibers; also called Abd-Rep4CT; HisAbdQG4RepCT) MGSSGHHHHHHMLAEAKVLANRELDKYGVSDYYKNLINNAKTVEGVKALIDEILAALPLEALFQGPNSGQGGYGGLGQGGYGQGAGSSAAAAAAAAAAAAGGQGGQGQGGYGQGSGGSAAAAAAAAAAAAAAAGRGQGGYGQGSGGNAAAAAAAAAAAAAAAGQGGQGGYGRQSQGAGSAAAAAAAAAAAAAAGSGQGGYGGQGQGGYGQSSASASAAASAASTVANSVSRLSSPSAVSRVSSAVSSLVSNGQVNMAALPNIISNISSSVSASAPGASGCEVIVQALLEVITALVQIVSSSSVGYINPSAVNQITNVVANAMAQVMG	binds	–
Rep4CT (Protease 3C cleavage product of His6ZQGRep4CT) (other, made by cleaving His6ZQGRep4CT; also called GP-Rep4CT) GQGGYGGLGQGGYGQGAGSSAAAAAAAAAAAAGGQGGQGQGGYGQGSGGSAAAAAAAAAAAAAAAGRGQGGYGQGSGGNAAAAAAAAAAAAAAAGQGGQGGYGRQSQGAGSAAAAAAAAAAAAAAGSGQGGYGGQGQGGYGQSSASASAAASAASTVANSVSRLSSPSAVSRVSSAVSSLVSNGQVNMAALPNIISNISSSVSASAPGASGCEVIVQALLEVITALVQIVSSSSVGYINPSAVNQITNVVANAMAQVMG	–	binds
